The record followed here is patent US20200079851A1 (University of Texas, published 2020).

Usually EC50 stands for the concentration needed to bring the measured effect to its halfway point. Read a high EC50 as a need for much substance. By EC50 (read off the curve) is commonly meant the concentration needed to bring the measured effect to its halfway point. Higher therefore signals a need for much substance.

One test has as its target T1, SR.
T1 construct: also called LILRB4 SR-hIgG1-Fc; stalk region of LILRB4 as Fc fusion
In words: matrix of binding to LILRB4 domain-Fc fusions (FIG. 47); ELISA per paragraph 433.

For test [1], the target named is T2, LILRB4 D1 (first Ig-like domain) Fc fusion protein (human, UniProt Q8NHJ6 27-118).
T2 construct: also called D1 of LILRB4; not shown: Fc part
The description is as above.

Another test deals with T3, D2.
T3 construct: also called LILRB4 D2-hIgG1-Fc; second Ig-like domain of LILRB4 as Fc fusion
The test is described as above.

The target in test [2] is D2-SR-M15(139-219). Nature of the test: ELISA, mAb 8 titrated. (An ELISA detects its analyte on a solid surface through an enzyme-linked reagent.)
Test [3] deals with T4, D2-SR-M2(139-235).
T4 chain: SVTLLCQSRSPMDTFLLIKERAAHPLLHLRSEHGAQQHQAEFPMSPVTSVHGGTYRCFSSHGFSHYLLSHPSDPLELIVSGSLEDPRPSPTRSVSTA
Nature of the test: ELISA, mAb 8 titrated.

In test [4] the target is T5, human LILRB4 (human, UniProt Q8NHJ6 22-259, limits assumed).
T5 construct: also called leukocyte immunoglobulin-like receptor subfamily B member 4
In words: ELISA, OD450 against antibody concentration.

A further test has as its target D2-SR-M1(139-259). Nature of the test: ELISA, mAb titrated on D2-SR-M1(139-259).
Test [5] deals with T5, human LILRB4. In words: ELISA.
Test [6] concerns the target T6, D2-SR-Fc.
T6 construct: also called D2-SR-WT
Nature of the test: ELISA, mAb titrated on D2-SR-wt(119-259).

The target of test [7] is T7, LILRB3 (human, UniProt O75022 24-443, limits assumed).
T7 construct: also called leukocyte immunoglobulin-like receptor subfamily B member 3
In words: cross-reactivity test on the LILRBs (ELISA per paragraph 433).

The target of the next test is T8, LILRB2 (human, UniProt Q8N423 22-458, limits assumed).
T8 construct: also called leukocyte immunoglobulin-like receptor subfamily B member 2
The description is as above.

Test [8] deals with T9, LILRB1 (human, UniProt Q8NHL6 24-458, limits assumed).
T9 construct: also called leukocyte immunoglobulin-like receptor subfamily B member 1
The description is as above.

The target in test [9] is T10, LILRB5 (human, UniProt O75023 24-458, limits assumed). Described as above.
Test [10] addresses T5, human LILRB4. Nature of the test: ELISA, mAb titrated on the WT protein of the LILRB4 mutant series of FIG. 52 (construct limits not stated).
Test [11] has as its target T2, LILRB4 D1 (first Ig-like domain) Fc …. In words: ELISA, mAb titrated.
In a further test the target is T11, LILRB4-ECD-Fc (human, UniProt Q8NHJ6 27-259).
T11 construct: also called LILRB4-Fc; LILRB4 ECD-Fc fusion protein; not shown: Fc part
Nature of the test: ELISA, mAb titrated.

Test [12] deals with T5, human LILRB4. Nature of the test: ELISA, OD450 against antibody concentration. The source holds these as a separate data set.
The target in test [13] is T5, human LILRB4. Nature of the test: ELISA, OD450 against antibody concentration. The source holds these as a separate data set.
The target in another test is D2-SR-M16(210-259). Nature of the test: ELISA, mAb 139 titrated.
The target of test [14] is T7, LILRB3. Nature of the test: cross-reactivity ELISA (FIG. 46).
For test [15], the target named is T10, LILRB5. Nature of the test: cross-reactivity ELISA (FIG. 46).
For test [16], the target named is T6, D2-SR-Fc. Nature of the test: ELISA, mAb titrated.
For test [17], the target named is D2-SR-M15(139-219). In words: ELISA, mAb 216-2 titrated.
Test [18] has as its target T4, D2-SR-M2(139-235). Nature of the test: ELISA, mAb 216-2 titrated.
The target in test [19] is T9, LILRB1. Nature of the test: cross-reactivity ELISA (FIG. 46).
In test [20] the target is T5, human LILRB4. In words: ELISA, OD450 against antibody concentration. The source holds these as a separate data set.

T7 sequence (O75022 24-443 limits assumed): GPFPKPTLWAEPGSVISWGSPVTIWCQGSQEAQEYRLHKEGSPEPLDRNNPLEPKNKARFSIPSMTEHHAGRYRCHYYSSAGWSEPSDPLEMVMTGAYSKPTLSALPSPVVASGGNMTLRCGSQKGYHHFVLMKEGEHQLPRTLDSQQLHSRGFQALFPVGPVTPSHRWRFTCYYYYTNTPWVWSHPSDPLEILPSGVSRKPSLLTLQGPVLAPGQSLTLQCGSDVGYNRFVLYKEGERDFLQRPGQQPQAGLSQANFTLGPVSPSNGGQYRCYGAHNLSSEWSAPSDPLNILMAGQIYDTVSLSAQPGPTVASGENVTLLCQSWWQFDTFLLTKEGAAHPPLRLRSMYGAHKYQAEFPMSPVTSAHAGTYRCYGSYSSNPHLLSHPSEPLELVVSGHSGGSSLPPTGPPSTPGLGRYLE
T1 sequence (fusion chain, as listed by the source): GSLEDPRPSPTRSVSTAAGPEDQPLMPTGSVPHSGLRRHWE
T10 sequence (O75023 24-458 limits assumed): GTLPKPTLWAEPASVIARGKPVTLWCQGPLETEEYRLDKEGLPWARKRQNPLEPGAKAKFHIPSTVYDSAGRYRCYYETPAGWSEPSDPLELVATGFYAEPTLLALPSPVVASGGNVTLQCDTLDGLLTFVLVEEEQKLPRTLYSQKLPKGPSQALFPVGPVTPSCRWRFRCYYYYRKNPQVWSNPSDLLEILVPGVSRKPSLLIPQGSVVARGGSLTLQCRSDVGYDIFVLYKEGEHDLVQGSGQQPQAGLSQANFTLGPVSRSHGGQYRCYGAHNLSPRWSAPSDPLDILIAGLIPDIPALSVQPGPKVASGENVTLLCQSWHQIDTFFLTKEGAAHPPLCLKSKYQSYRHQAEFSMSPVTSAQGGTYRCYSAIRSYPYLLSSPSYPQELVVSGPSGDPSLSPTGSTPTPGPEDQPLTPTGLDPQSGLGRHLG
T9 sequence (Q8NHL6 24-458 limits assumed): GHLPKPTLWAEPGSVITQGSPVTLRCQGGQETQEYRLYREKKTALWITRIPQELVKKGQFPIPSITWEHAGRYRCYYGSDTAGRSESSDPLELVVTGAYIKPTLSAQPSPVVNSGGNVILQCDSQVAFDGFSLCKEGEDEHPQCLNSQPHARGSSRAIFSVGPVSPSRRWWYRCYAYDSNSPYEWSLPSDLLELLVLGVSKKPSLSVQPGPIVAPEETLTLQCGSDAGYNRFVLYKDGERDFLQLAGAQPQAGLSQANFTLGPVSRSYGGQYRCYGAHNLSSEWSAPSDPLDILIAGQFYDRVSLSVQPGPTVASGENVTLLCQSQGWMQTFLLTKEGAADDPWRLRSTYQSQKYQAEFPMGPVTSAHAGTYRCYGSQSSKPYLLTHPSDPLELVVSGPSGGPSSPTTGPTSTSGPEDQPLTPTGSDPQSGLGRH
T2 sequence (Q8NHJ6 27-118): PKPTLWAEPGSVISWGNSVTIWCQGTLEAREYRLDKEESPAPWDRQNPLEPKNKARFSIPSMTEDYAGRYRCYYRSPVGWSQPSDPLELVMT
T3 sequence (fusion chain, as listed by the source): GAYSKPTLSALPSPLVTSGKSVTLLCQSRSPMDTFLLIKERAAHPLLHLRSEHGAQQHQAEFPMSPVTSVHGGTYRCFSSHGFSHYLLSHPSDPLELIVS
T8 sequence (Q8N423 22-458 limits assumed): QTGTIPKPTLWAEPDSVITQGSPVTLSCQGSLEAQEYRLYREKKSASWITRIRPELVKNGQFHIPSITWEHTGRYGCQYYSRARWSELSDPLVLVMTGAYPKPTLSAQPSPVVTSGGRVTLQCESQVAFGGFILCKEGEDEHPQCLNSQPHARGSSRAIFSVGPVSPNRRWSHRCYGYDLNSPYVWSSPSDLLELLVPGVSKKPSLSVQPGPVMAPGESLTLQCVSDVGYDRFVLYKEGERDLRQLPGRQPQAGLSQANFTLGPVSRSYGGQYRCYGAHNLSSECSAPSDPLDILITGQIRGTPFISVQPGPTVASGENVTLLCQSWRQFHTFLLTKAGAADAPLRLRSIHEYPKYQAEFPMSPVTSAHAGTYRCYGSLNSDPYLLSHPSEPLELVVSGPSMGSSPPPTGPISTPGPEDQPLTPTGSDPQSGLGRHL
T6 sequence (Q8NHJ6 119-259): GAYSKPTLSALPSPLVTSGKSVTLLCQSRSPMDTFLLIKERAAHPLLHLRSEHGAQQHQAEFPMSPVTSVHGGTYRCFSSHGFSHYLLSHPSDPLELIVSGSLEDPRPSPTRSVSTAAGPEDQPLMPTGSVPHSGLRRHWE
Sequence of D2-SR-M16(210-259) (chain, as listed by the source): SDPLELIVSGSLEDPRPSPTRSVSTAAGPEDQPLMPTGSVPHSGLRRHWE

B1: anti-LILRB4 rabbit monoclonal antibody #8 (antibody, V domains shown)
VH: QSVKESGGGLVTPGGTLTLTCTASGFSLISYDMYWVRQAPGKGLEYIGIIYSDGYTFYATGAKGRITISRTSTTVDLKITSPTTEDTATYFCATNAFALWGQGTLVTISS
VL: ELDLTQTPSSVSAAVGGTVTISCQSSQNVYNNNWLVWLQQKPGQPPKRLIYTASSLASGVPSRFAGSGSATQFTLTISDLECGDAATYYCAGGYSGPIYTFGGGTEVEIK
notes: also called mAb 8
Turning to B1, the binding result in the test with SR is “binds”; in [1] it was “no binding”; in the test with D2 it was “no binding”; with D2-SR-M15(139-219) [2] it was “no binding (tested: 1000 ng/ml)”; with D2-SR-M2(139-235) [3], “no binding (tested: 1000 ng/ml)”; with LILRB3 [7], “no binding”. In addition, the binding result with LILRB2, with LILRB1 [8] and with LILRB5 [9] was “no binding” each time. Besides, the EC50 with human LILRB4 [4] came out at 0.00943 µg/mL; with human LILRB4 [5], 0.0629 nM. Further, the “EC50 (read off the curve)” value in the test with D2-SR-M1(139-259) and in the test with D2-SR-Fc [6] was about 0.03 µg/mL throughout.

B2: anti-LILRB4 rabbit monoclonal antibody #128-3 (antibody, V domains shown)
VH: EQSLEESGGDLVTPGASLTLTCKASGIDFSNHYYIYWVRQAPGKGLEWIGCIFSGDSASTYYASWAKGRFTISKSSSPTVTLQMTSLTAADTATYFCARGMSTNDWASDLWGPGTMVTVSS
VL: ELVMTQTPASVSAAVGGTVTINCQASESINSIYLAWYQQKPGQRPKLLIYRASTLASGVSSRFKGSASGTGFTLTISDLECADAATYYCQQSYDWGDVENTFGGGTEVEIK
As to B2, the binding result with SR, with D2, with LILRB3 [7], with LILRB2, with LILRB1 [8] and with LILRB5 [9] was “no binding” in each case. Further, the “EC50 (read off the curve)” value was about 0.01 µg/mL with human LILRB4 [10], about 0.02 µg/mL in test [11] and about 0.02 µg/mL in the test with LILRB4-ECD-Fc. For the same molecule, the EC50 in the test with human LILRB4 [5] turned out to be 0.184 nM; in the test with human LILRB4 [12], 0.0276 µg/mL.

B3: anti-LILRB4 rabbit monoclonal antibody #139 (antibody, V domains shown)
VH: EQSLEESGGRLVTPGTPLTLTCTVSGFSLNSYAMAWVRQAPGKGLEWIGIIGLSTMTYYASWVNGRFTISKTSTTVDLKMTSLTTEDTATYFCVRNDVYWAFNLWGQGTLVTVSS
VL: ELDLTQTPSSVSAGVGGTVSISCQSSESVVNNHALSWYQQKPGQPPKLLIYKASTLASGVPSRFSGSGSGAQFTLTISGVQCDDAATYYCQGGFYSGISDYPFGGGTEVEIK
B3: the EC50 was 0.0125 µg/mL with human LILRB4 [13] and 0.0832 nM with human LILRB4 [5]. Besides, the binding result in the test with SR is given as “no binding”; in [1] it was “no binding”; with D2, “binds”; with D2-SR-M16(210-259), “no binding (tested: 1000 ng/ml)”; in the test with LILRB3 [14], “binds”; in the test with LILRB5 [15], “binds”. In the test with LILRB1 [8], the binding result is “no binding”. Also, the “EC50 (read off the curve)” value with D2-SR-Fc [16] is about 0.06 µg/mL.

B4: anti-LILRB4 rabbit monoclonal antibody #216-2 (antibody, V domains shown)
VH: EQSLKESGGRLVTPGTPLTLTCTVSGIDLSSYAMTWVRQVPGKGLEYIGFINIVGIAGYATWAKGRFTISKTSTTVDLKVTSPTTEDTATYFCARNWIRLDLWGQGTLVTVSS
VL: ELVMTQTPASVSAAVGGTVTISCQSSESLYKKNYLSWFQQKPGQPPKLLIYEASKLASGVPSRFSGSGSGTQFTLTISDVQCDDAASYYCLGDYTNGRDTTFGGGTEVEIK
On to B4, for which the binding result is given as “binds” in the test with SR; “no binding” in test [1]; “no binding” with D2; “no binding (tested: 1000 ng/ml)” with D2-SR-M15(139-219) [17]; “no binding (tested: 1000 ng/ml)” with D2-SR-M2(139-235) [18]; “binds” with LILRB1 [19]. In addition, the binding result in the test with LILRB5 [15] is recorded as “binds”. For the same molecule, the EC50 with human LILRB4 [5] is 0.0647 nM; with human LILRB4 [20], 0.0097 µg/mL.
